Key:
[1] = tested on: E2, E4, E5 expression head and neck cell line; experiment: Growth of E2, E4, E5 expressing head and neck cell line with FGFR inhibitor; format: cell-based
HPV-16 [2] = experiment: qPCR sensitivity against HPV-HNSCC tumor samples diluted among 10 ng normal human DNA
HPV-16 [3] = experiment: qPCR on 20 ng DNA from saliva samples of HPV-HNSCC patients
HPV-16 genome = experiment: qPCR sensitivity against HPV-16 copy number (known-copy HPV-16 DNA among 10 ng normal human DNA); settings: for reaction under 30 copies of HPV-16 genome: among 10 ng normal DNA, triplicate qPCR
HPV16 DNA [4] = experiment: CLIA test for HPV16, performance characteristics in salivary rinse
From the text: (§1) These primer/probe sets were adapted for development of a CLIA test for HPV16 DNA detection in plasma and salivary rinses (Table 2). Test performance was improved, so that analytical sensitivity in salivary rinse spike in assays ranges from 2.5-5.0 DNA copies/mL with 100% specificity for the three primer/probe sets that are now part of the component assay, resulting in a five-fold improvement in analytic sensitivity that is in the range of sensitivity found in sequence based liquid biopsy methods (FIG. 23, Table 2). Additionally, the assays can be used quantitatively, with measuring ranges between 2.0 log10-7.0 log10 copies/mL.

HPV16 DNA [5] = experiment: CLIA test for HPV16, performance characteristics in plasma
From the text: as §1

HPV DNA = experiment: CLIA HPV test pilot study on saliva rinse samples from HPV-positive HNSCC patients and non-cancer controls; parameters: species or system HPV16; HPV16 DNA measured by CLIA HPV test: unit not given here
Description: As a final validation, Applicants a small pilot study was performed on a blinded set of saliva rinse samples from 28 patients with HPV-positive HNSCC and 15 salivary rinses from non-cancer controls. […] The sensitivity increased to 96% when all three sets were used (Table 3).

[6] = tumor DNA dilution, fraction of 32 samples
[7] = samples tested 3 times, 10 ng DNA from healthy individual
[8] = first template ('... HPV16', word is an image)
[9] = second template (name is an image)

Molecule: AZD4547
- growth effect induced by E2, E4, E5 [1]: reversed the growth effect induced by E2, E4, E5

B1: HR E5L2-4: primer/probe set for junction between E5 and L2, SEQ ID NO: 55-57 (same as SEQ ID NO: 4-6) (nucleic acid)
DNA 1: GCAAAACGCACAAAACGTGC
DNA 2: GACATGTACCTGCCTGTTTGC
DNA 3: CGGCTACCCAACTTTATAAAACA
modifications: chemistry not given here
- sensitivity under 100 cells (HPV-16 [2]; 32 HPV-HNSCC tumor samples): 93.8%
- sensitivity under single cells (HPV-16 [2]; 32 HPV-HNSCC tumor samples, 6.6 pg DNA): 15.6%
- sensitivity under 10 cells (HPV-16 [2]; 32 HPV-HNSCC tumor samples, 66 pg DNA): 50.0%
- Threshold of tumor cell numbers for HPV-16 detection (HPV-16 [2]; Sample # 1): 30.0 tumor cells
- Threshold of tumor cell numbers for HPV-16 detection (HPV-16 [2]; Sample # 2): 30.0 tumor cells
- Threshold of tumor cell numbers for HPV-16 detection (HPV-16 [2]; Sample # 3): 150.0 tumor cells
- Threshold of tumor cell numbers for HPV-16 detection (HPV-16 [2]; Sample # 4): 60.0 tumor cells
- Threshold of tumor cell numbers for HPV-16 detection (HPV-16 [2]; Sample # 5): 150.0 tumor cells
- Threshold of tumor cell numbers for HPV-16 detection (HPV-16 [2]; Sample # 6): 30.0 tumor cells
- Threshold of tumor cell numbers for HPV-16 detection (HPV-16 [2]; Sample # 7): 30.0 tumor cells
- Threshold of tumor cell numbers for HPV-16 detection (HPV-16 [2]; Sample # 8): 15.0 tumor cells
- Threshold of tumor cell numbers for HPV-16 detection (HPV-16 [2]; Sample # 9): 30.0 tumor cells
- Threshold of tumor cell numbers for HPV-16 detection (HPV-16 [2]; Sample # 10): 30.0 tumor cells
- Threshold of tumor cell numbers for HPV-16 detection (HPV-16 [2]; Sample # 11): 6.0 tumor cells
- Threshold of tumor cell numbers for HPV-16 detection (HPV-16 [2]; Sample # 12): 30.0 tumor cells
- Threshold of tumor cell numbers for HPV-16 detection (HPV-16 [2]; Sample # 13): 30.0 tumor cells
- Threshold of tumor cell numbers for HPV-16 detection (HPV-16 [2]; Sample # 14): 30.0 tumor cells
- Threshold of tumor cell numbers for HPV-16 detection (HPV-16 [2]; Sample # 15): 30.0 tumor cells
- Threshold of tumor cell numbers for HPV-16 detection (HPV-16 [2]; Sample # 16): 6.0 tumor cells
- Threshold of tumor cell numbers for HPV-16 detection (HPV-16 [2]; Sample # 17): 6.0 tumor cells
- Threshold of tumor cell numbers for HPV-16 detection (HPV-16 [2]; Sample # 18): 6.0 tumor cells
- Threshold of tumor cell numbers for HPV-16 detection (HPV-16 [2]; Sample # 19): 1.2 tumor cells
- Threshold of tumor cell numbers for HPV-16 detection (HPV-16 [2]; Sample # 20): 1.2 tumor cells
- Threshold of tumor cell numbers for HPV-16 detection (HPV-16 [2]; Sample # 21): 6.0 tumor cells
- Threshold of tumor cell numbers for HPV-16 detection (HPV-16 [2]; Sample # 22): 0.3 tumor cells
- Threshold of tumor cell numbers for HPV-16 detection (HPV-16 [2]; Sample # 23): 1.2 tumor cells
- Threshold of tumor cell numbers for HPV-16 detection (HPV-16 [2]; Sample # 24): 1.2 tumor cells
- Threshold of tumor cell numbers for HPV-16 detection (HPV-16 [2]; Sample # 25): 0.6 tumor cells
- Threshold of tumor cell numbers for HPV-16 detection (HPV-16 [2]; Sample # 26): 0.6 tumor cells
- Threshold of tumor cell numbers for HPV-16 detection (HPV-16 [2]; Sample # 27): 0.6 tumor cells
- Threshold of tumor cell numbers for HPV-16 detection (HPV-16 [2]; Sample # 28): 1.0 tumor cells
- Threshold of tumor cell numbers for HPV-16 detection (HPV-16 [2]; Sample # 29): 3.0 tumor cells
- Threshold of tumor cell numbers for HPV-16 detection (HPV-16 [2]; Sample # 30): 30.0 tumor cells
- Threshold of tumor cell numbers for HPV-16 detection (HPV-16 [2]; Sample # 31): 0.6 tumor cells
- Threshold of tumor cell numbers for HPV-16 detection (HPV-16 [2]; Sample # 32): 30.0 tumor cells
- Sensitivity, 1 cell (HPV-16 [2]; [6]): 0.156
- Sensitivity, 3 cells (HPV-16 [2]; [6]): 0.313
- Sensitivity, 10 cells (HPV-16 [2]; [6]): 0.500
- Sensitivity, 30 cells (HPV-16 [2]; [6]): 0.844
- Sensitivity, 100 cells (HPV-16 [2]; [6]): 0.938
- sensitivity of detection from saliva 20 ng DNA samples (HPV-16 [3]; 28 HPV-HNSCC saliva samples): 46.4%
- copy numbers detected (standard curve analysis) (HPV-16 [3]; compared among 4 primer-probe sets): highest
- reaction under 30 copies of HPV-16 genome (HPV-16 genome): consistently amplified
- reaction under 30 copies of HPV-16 genome (HPV-16 genome; listed as Max-10): react consistently
- number of reactions against 10 HPV-16 copies (HPV-16 genome; [7]): one
- number of reactions under 30 HPV-16 copies (HPV-16 genome; [7]): 3 reactions
- Measuring Range - Salivary Rinse (HPV16 DNA [4]; first template ('... HPV16')): 2.0-8.5log10 log10 copies/mL
- Limit of Detection - Salivary rinse (HPV16 DNA [4]; [8]): 2 copies/mL
- Limit of Detection - Salivary rinse (HPV16 DNA [4]; [9]): 19 copies/mL
- Measuring Range - Salivary Rinse (HPV16 DNA [4]; [9]): 2.0-6.5 log10 log10 copies/mL
- Accuracy - Plasma Blind Panel, Negative % Agreement (HPV16 DNA [5]): 100%
- Accuracy - Plasma Blind Panel, Positive % Agreement (HPV16 DNA [5]): 100%
- Accuracy - Plasma Blind Panel, Total % Agreement (HPV16 DNA [5]): 100%
- Measuring Range - Plasma (HPV16 DNA [5]; first template ('... HPV16')): 2.0-8.5 log10 log10 copies/mL
- Limit of Detection - Plasma (HPV16 DNA [5]; [8]): 1.5 copies/mL
- Limit of Detection - Plasma (HPV16 DNA [5]; [9]): 20 copies/mL
- Measuring Range - Plasma (HPV16 DNA [5]; [9]): 2.0-6.5 log10 log10 copies/mL
- sensitivity for the detection of HPV DNA in saliva rinse samples (HPV DNA; 28 patients with HPV-positive HNSCC): 71%
- HPV16 DNA measured by CLIA HPV test (HPV DNA; saliva sample from HPV-HNSCC patient # 1): 322000
- HPV16 DNA measured by CLIA HPV test (HPV DNA; saliva sample from HPV-HNSCC patient # 2): 52500
- HPV16 DNA measured by CLIA HPV test (HPV DNA; saliva sample from HPV-HNSCC patient # 3): 25800
- HPV16 DNA measured by CLIA HPV test (HPV DNA; saliva sample from HPV-HNSCC patient # 4): 33200
- HPV16 DNA measured by CLIA HPV test (HPV DNA; saliva sample from HPV-HNSCC patient # 7): 9670
- HPV16 DNA measured by CLIA HPV test (HPV DNA; saliva sample from HPV-HNSCC patient # 8): 2510
- HPV16 DNA measured by CLIA HPV test (HPV DNA; saliva sample from HPV-HNSCC patient # 9): 1590
- HPV16 DNA measured by CLIA HPV test (HPV DNA; saliva sample from HPV-HNSCC patient # 12): 86.7
- HPV16 DNA measured by CLIA HPV test (HPV DNA; saliva sample from HPV-HNSCC patient # 13): 53.1
- HPV16 DNA measured by CLIA HPV test (HPV DNA; saliva sample from HPV-HNSCC patient # 14): 31.1
- HPV16 DNA measured by CLIA HPV test (HPV DNA; saliva sample from HPV-HNSCC patient # 15): 49.7
- HPV16 DNA measured by CLIA HPV test (HPV DNA; saliva sample from HPV-HNSCC patient # 16): 41.3
- HPV16 DNA measured by CLIA HPV test (HPV DNA; saliva sample from HPV-HNSCC patient # 17): 15.8
- HPV16 DNA measured by CLIA HPV test (HPV DNA; saliva sample from HPV-HNSCC patient # 18): 2.61
- HPV16 DNA measured by CLIA HPV test (HPV DNA; saliva sample from HPV-HNSCC patient # 19): 26.9
- HPV16 DNA measured by CLIA HPV test (HPV DNA; saliva sample from HPV-HNSCC patient # 20): 13.4
- HPV16 DNA measured by CLIA HPV test (HPV DNA; saliva sample from HPV-HNSCC patient # 21): 6.54
- HPV16 DNA measured by CLIA HPV test (HPV DNA; saliva sample from HPV-HNSCC patient # 22): 1.16
- HPV16 DNA measured by CLIA HPV test (HPV DNA; saliva sample from HPV-HNSCC patient # 26): 2.15
- HPV16 DNA measured by CLIA HPV test (HPV DNA; saliva sample from HPV-HNSCC patient # 27): 1.19
